Source: patent publication CN106432498A (UNIV ANHUI, dated 2017)

B1: H2BL2抗体 (humanized anti-uPAR antibody H2BL2) (antibody, human IgG1, kappa, V domains shown)
VH: EVQLVQSGAEVKKPGSSVKVSCKASGYTFTDYYIHWVRQAPGQGLEWIGWIFHGSDNTEYNEKFKSKATITADESTSTAYMELSSLRSEDTAVFYCARWGPHWYFDAWGRGTLVTVSS
VL: DIQMTQSPSTLSASVGDRVTITCRASSSVSYIHWYQQKPGRAPKPLMYEASSRATGVPSRFSGSGSGTEYTLTISSLQSDDFATYYCQQWNYPFTFGQGTKLEIKR
notes: also called H2BL2溶液
B2: ATN615抗体 (monoclonal antibody targeting uPAR) (antibody, V domains shown)
VH: GVKLQQSGPEVVKPGASVKISCKASGYSFTNFYIHWVKQRPGQGLEWIGWIFHGSDNTEYNEKFKDKATLTADTSSSTAYMQLSSLTSEDSAVYFCARWGPHWYFDVWGQGTTVTVSS
VL: DIVLTQSPDITAASLGQKVTITCSASSSVSYMHWYQQKSGTSPKPWIFEISKLASGVPARFSGSGSGTSYSLTISSMEAEDAAIYYCQQWNYPFTFGGGTKLEIKR
notes: Made in the same way as H2BL2 (293F cells, protein A); also called ATN615溶液

Legend:
[1] = biological target: 人尿激酶型纤溶酶原激活物受体 (human uPAR) on SW480 cells (human) (UniProt Q03405); assay: flow cytometry on SW480 cells, antibody at 5 μg/ml, FITC goat anti-human IgG
[2] = biological target: T1, 重组人uPAR蛋白 (recombinant human uPAR protein, uPAR-ECD) (human, UniProt Q03405 23-303, limits assumed); assay: BLI (Fortebio), antibody captured on anti-human IgG Fc sensor, uPAR-ECD at 0.25-1 μM
T1 construct: extracellular domain; Bought reagent
T1 sequence (Q03405 23-303 limits assumed): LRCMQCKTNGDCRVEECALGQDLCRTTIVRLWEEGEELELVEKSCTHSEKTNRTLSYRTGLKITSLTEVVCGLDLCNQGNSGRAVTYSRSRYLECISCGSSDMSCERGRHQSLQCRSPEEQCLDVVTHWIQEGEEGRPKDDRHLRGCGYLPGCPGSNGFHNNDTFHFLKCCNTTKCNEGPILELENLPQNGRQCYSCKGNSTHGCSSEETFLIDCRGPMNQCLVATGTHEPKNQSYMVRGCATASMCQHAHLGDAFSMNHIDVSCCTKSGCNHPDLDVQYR

Row | Binder | 平均荧光强度 [1] | 阳性率 [1] [%] | Kd [2] [nM] | koff [2] [s⁻¹] | kon [2] [M⁻¹ s⁻¹]
1 | B1 | 4.44 | 99.6 | 6.32 | 0.000454 | 71800
2 | B2 |  |  | 7.45 | 0.000576 | 77300
